According to the Human Domainome abundance scans (Beltran et al. 2025):
± gives the uncertainty stated by the source.

B1: Homeobox protein cut-like 1, residues 548 to 629; numbered along this chain, P39880 (parent)
chain: GEEMDTAEIARQVKEQLIKHNIGQRIFGHYVLGLSQGSVSEILARPKPWNKLTVRGKEPFHKMKQFLSDEQNILALRSIQGR
B2: Activity-dependent neuroprotector homeobox protein, residues 770 to 810; numbered along this chain, Q9H2P0 (parent)
chain: FLTKYFNKQPYPTRREIEKLAASLWLWKSDIASHFSNKRKK

Variants of: B1
Assay: abundance fitness (aPCA) (normalised: wild type 0, dead -1); higher = more abundant; growth selection in yeast, the domain comes from the species named
Conditions: Homo sapiens

Variant	abundance fitness
GEEGDTAEIARQVKEQLIKHNIGQRIFGHYVLGLSQGSVSEILARPKPWNKLTVRGKEPFHKMKQFLSDEQNILALRSIQGR [M4G]	-0.523 ± 0.031
GEEFDTAEIARQVKEQLIKHNIGQRIFGHYVLGLSQGSVSEILARPKPWNKLTVRGKEPFHKMKQFLSDEQNILALRSIQGR [M4F]	-0.244 ± 0.072
GEEKDTAEIARQVKEQLIKHNIGQRIFGHYVLGLSQGSVSEILARPKPWNKLTVRGKEPFHKMKQFLSDEQNILALRSIQGR [M4K]	-0.36 ± 0.039
GEEHDTAEIARQVKEQLIKHNIGQRIFGHYVLGLSQGSVSEILARPKPWNKLTVRGKEPFHKMKQFLSDEQNILALRSIQGR [M4H]	-0.304 ± 0.069
GEEDDTAEIARQVKEQLIKHNIGQRIFGHYVLGLSQGSVSEILARPKPWNKLTVRGKEPFHKMKQFLSDEQNILALRSIQGR [M4D]	-0.304 ± 0.054
GEELDTAEIARQVKEQLIKHNIGQRIFGHYVLGLSQGSVSEILARPKPWNKLTVRGKEPFHKMKQFLSDEQNILALRSIQGR [M4L]	0.002 ± 0.03
GEECDTAEIARQVKEQLIKHNIGQRIFGHYVLGLSQGSVSEILARPKPWNKLTVRGKEPFHKMKQFLSDEQNILALRSIQGR [M4C]	-0.677 ± 0.1
GEEADTAEIARQVKEQLIKHNIGQRIFGHYVLGLSQGSVSEILARPKPWNKLTVRGKEPFHKMKQFLSDEQNILALRSIQGR [M4A]	-0.432 ± 0.036
GEEEDTAEIARQVKEQLIKHNIGQRIFGHYVLGLSQGSVSEILARPKPWNKLTVRGKEPFHKMKQFLSDEQNILALRSIQGR [M4E]	-0.191 ± 0.033
GEEIDTAEIARQVKEQLIKHNIGQRIFGHYVLGLSQGSVSEILARPKPWNKLTVRGKEPFHKMKQFLSDEQNILALRSIQGR [M4I]	0.101 ± 0.055
GEENDTAEIARQVKEQLIKHNIGQRIFGHYVLGLSQGSVSEILARPKPWNKLTVRGKEPFHKMKQFLSDEQNILALRSIQGR [M4N]	-0.331 ± 0.056
GEAMDTAEIARQVKEQLIKHNIGQRIFGHYVLGLSQGSVSEILARPKPWNKLTVRGKEPFHKMKQFLSDEQNILALRSIQGR [E3A]	-0.064 ± 0.029
GEYMDTAEIARQVKEQLIKHNIGQRIFGHYVLGLSQGSVSEILARPKPWNKLTVRGKEPFHKMKQFLSDEQNILALRSIQGR [E3Y]	-0.091 ± 0.063
GEQMDTAEIARQVKEQLIKHNIGQRIFGHYVLGLSQGSVSEILARPKPWNKLTVRGKEPFHKMKQFLSDEQNILALRSIQGR [E3Q]	-0.089 ± 0.04
GETMDTAEIARQVKEQLIKHNIGQRIFGHYVLGLSQGSVSEILARPKPWNKLTVRGKEPFHKMKQFLSDEQNILALRSIQGR [E3T]	-0.057 ± 0.036
GECMDTAEIARQVKEQLIKHNIGQRIFGHYVLGLSQGSVSEILARPKPWNKLTVRGKEPFHKMKQFLSDEQNILALRSIQGR [E3C]	-0.142 ± 0.046
GERMDTAEIARQVKEQLIKHNIGQRIFGHYVLGLSQGSVSEILARPKPWNKLTVRGKEPFHKMKQFLSDEQNILALRSIQGR [E3R]	-0.145 ± 0.025
GELMDTAEIARQVKEQLIKHNIGQRIFGHYVLGLSQGSVSEILARPKPWNKLTVRGKEPFHKMKQFLSDEQNILALRSIQGR [E3L]	-0.107 ± 0.031
GENMDTAEIARQVKEQLIKHNIGQRIFGHYVLGLSQGSVSEILARPKPWNKLTVRGKEPFHKMKQFLSDEQNILALRSIQGR [E3N]	-0.119 ± 0.073
GEIMDTAEIARQVKEQLIKHNIGQRIFGHYVLGLSQGSVSEILARPKPWNKLTVRGKEPFHKMKQFLSDEQNILALRSIQGR [E3I]	-0.081 ± 0.066
GEFMDTAEIARQVKEQLIKHNIGQRIFGHYVLGLSQGSVSEILARPKPWNKLTVRGKEPFHKMKQFLSDEQNILALRSIQGR [E3F]	0.1 ± 0.063
GEGMDTAEIARQVKEQLIKHNIGQRIFGHYVLGLSQGSVSEILARPKPWNKLTVRGKEPFHKMKQFLSDEQNILALRSIQGR [E3G]	-0.155 ± 0.023

Variant	abundance fitness
GEPMDTAEIARQVKEQLIKHNIGQRIFGHYVLGLSQGSVSEILARPKPWNKLTVRGKEPFHKMKQFLSDEQNILALRSIQGR [E3P]	-0.137 ± 0.045
GEMMDTAEIARQVKEQLIKHNIGQRIFGHYVLGLSQGSVSEILARPKPWNKLTVRGKEPFHKMKQFLSDEQNILALRSIQGR [E3M]	-0.101 ± 0.039
GEDMDTAEIARQVKEQLIKHNIGQRIFGHYVLGLSQGSVSEILARPKPWNKLTVRGKEPFHKMKQFLSDEQNILALRSIQGR [E3D]	0.001 ± 0.042
GESMDTAEIARQVKEQLIKHNIGQRIFGHYVLGLSQGSVSEILARPKPWNKLTVRGKEPFHKMKQFLSDEQNILALRSIQGR [E3S]	-0.118 ± 0.032
GEWMDTAEIARQVKEQLIKHNIGQRIFGHYVLGLSQGSVSEILARPKPWNKLTVRGKEPFHKMKQFLSDEQNILALRSIQGR [E3W]	-0.017 ± 0.031
GEKMDTAEIARQVKEQLIKHNIGQRIFGHYVLGLSQGSVSEILARPKPWNKLTVRGKEPFHKMKQFLSDEQNILALRSIQGR [E3K]	-0.064 ± 0.035
GEHMDTAEIARQVKEQLIKHNIGQRIFGHYVLGLSQGSVSEILARPKPWNKLTVRGKEPFHKMKQFLSDEQNILALRSIQGR [E3H]	-0.027 ± 0.061
GEVMDTAEIARQVKEQLIKHNIGQRIFGHYVLGLSQGSVSEILARPKPWNKLTVRGKEPFHKMKQFLSDEQNILALRSIQGR [E3V]	-0.098 ± 0.028
TEEMDTAEIARQVKEQLIKHNIGQRIFGHYVLGLSQGSVSEILARPKPWNKLTVRGKEPFHKMKQFLSDEQNILALRSIQGR [G1T]	-0.035 ± 0.064
QEEMDTAEIARQVKEQLIKHNIGQRIFGHYVLGLSQGSVSEILARPKPWNKLTVRGKEPFHKMKQFLSDEQNILALRSIQGR [G1Q]	-0.051 ± 0.089
VEEMDTAEIARQVKEQLIKHNIGQRIFGHYVLGLSQGSVSEILARPKPWNKLTVRGKEPFHKMKQFLSDEQNILALRSIQGR [G1V]	-0.01 ± 0.037
WEEMDTAEIARQVKEQLIKHNIGQRIFGHYVLGLSQGSVSEILARPKPWNKLTVRGKEPFHKMKQFLSDEQNILALRSIQGR [G1W]	-0.172 ± 0.049
SEEMDTAEIARQVKEQLIKHNIGQRIFGHYVLGLSQGSVSEILARPKPWNKLTVRGKEPFHKMKQFLSDEQNILALRSIQGR [G1S]	-0.004 ± 0.046
KEEMDTAEIARQVKEQLIKHNIGQRIFGHYVLGLSQGSVSEILARPKPWNKLTVRGKEPFHKMKQFLSDEQNILALRSIQGR [G1K]	-0.035 ± 0.071
PEEMDTAEIARQVKEQLIKHNIGQRIFGHYVLGLSQGSVSEILARPKPWNKLTVRGKEPFHKMKQFLSDEQNILALRSIQGR [G1P]	-0.044 ± 0.083
IEEMDTAEIARQVKEQLIKHNIGQRIFGHYVLGLSQGSVSEILARPKPWNKLTVRGKEPFHKMKQFLSDEQNILALRSIQGR [G1I]	0.049 ± 0.17
AEEMDTAEIARQVKEQLIKHNIGQRIFGHYVLGLSQGSVSEILARPKPWNKLTVRGKEPFHKMKQFLSDEQNILALRSIQGR [G1A]	-0.064 ± 0.036
DEEMDTAEIARQVKEQLIKHNIGQRIFGHYVLGLSQGSVSEILARPKPWNKLTVRGKEPFHKMKQFLSDEQNILALRSIQGR [G1D]	0.029 ± 0.052
YEEMDTAEIARQVKEQLIKHNIGQRIFGHYVLGLSQGSVSEILARPKPWNKLTVRGKEPFHKMKQFLSDEQNILALRSIQGR [G1Y]	0.075 ± 0.18
REEMDTAEIARQVKEQLIKHNIGQRIFGHYVLGLSQGSVSEILARPKPWNKLTVRGKEPFHKMKQFLSDEQNILALRSIQGR [G1R]	-0.041 ± 0.035
LEEMDTAEIARQVKEQLIKHNIGQRIFGHYVLGLSQGSVSEILARPKPWNKLTVRGKEPFHKMKQFLSDEQNILALRSIQGR [G1L]	-0.03 ± 0.059
EEEMDTAEIARQVKEQLIKHNIGQRIFGHYVLGLSQGSVSEILARPKPWNKLTVRGKEPFHKMKQFLSDEQNILALRSIQGR [G1E]	-0.036 ± 0.036

Variant	abundance fitness
HEEMDTAEIARQVKEQLIKHNIGQRIFGHYVLGLSQGSVSEILARPKPWNKLTVRGKEPFHKMKQFLSDEQNILALRSIQGR [G1H]	-0.289 ± 0.5
CEEMDTAEIARQVKEQLIKHNIGQRIFGHYVLGLSQGSVSEILARPKPWNKLTVRGKEPFHKMKQFLSDEQNILALRSIQGR [G1C]	-0.026 ± 0.061
MEEMDTAEIARQVKEQLIKHNIGQRIFGHYVLGLSQGSVSEILARPKPWNKLTVRGKEPFHKMKQFLSDEQNILALRSIQGR [G1M]	0.038 ± 0.073
NEEMDTAEIARQVKEQLIKHNIGQRIFGHYVLGLSQGSVSEILARPKPWNKLTVRGKEPFHKMKQFLSDEQNILALRSIQGR [G1N]	-0.012 ± 0.11
FEEMDTAEIARQVKEQLIKHNIGQRIFGHYVLGLSQGSVSEILARPKPWNKLTVRGKEPFHKMKQFLSDEQNILALRSIQGR [G1F]	-0.104 ± 0.19
GDEMDTAEIARQVKEQLIKHNIGQRIFGHYVLGLSQGSVSEILARPKPWNKLTVRGKEPFHKMKQFLSDEQNILALRSIQGR [E2D]	-0.154 ± 0.05
GAEMDTAEIARQVKEQLIKHNIGQRIFGHYVLGLSQGSVSEILARPKPWNKLTVRGKEPFHKMKQFLSDEQNILALRSIQGR [E2A]	-0.121 ± 0.029
GREMDTAEIARQVKEQLIKHNIGQRIFGHYVLGLSQGSVSEILARPKPWNKLTVRGKEPFHKMKQFLSDEQNILALRSIQGR [E2R]	-0.188 ± 0.027
GVEMDTAEIARQVKEQLIKHNIGQRIFGHYVLGLSQGSVSEILARPKPWNKLTVRGKEPFHKMKQFLSDEQNILALRSIQGR [E2V]	-0.17 ± 0.028
GHEMDTAEIARQVKEQLIKHNIGQRIFGHYVLGLSQGSVSEILARPKPWNKLTVRGKEPFHKMKQFLSDEQNILALRSIQGR [E2H]	-0.256 ± 0.12
GGEMDTAEIARQVKEQLIKHNIGQRIFGHYVLGLSQGSVSEILARPKPWNKLTVRGKEPFHKMKQFLSDEQNILALRSIQGR [E2G]	-0.145 ± 0.026
GQEMDTAEIARQVKEQLIKHNIGQRIFGHYVLGLSQGSVSEILARPKPWNKLTVRGKEPFHKMKQFLSDEQNILALRSIQGR [E2Q]	-0.126 ± 0.04
GWEMDTAEIARQVKEQLIKHNIGQRIFGHYVLGLSQGSVSEILARPKPWNKLTVRGKEPFHKMKQFLSDEQNILALRSIQGR [E2W]	-0.202 ± 0.036
GKEMDTAEIARQVKEQLIKHNIGQRIFGHYVLGLSQGSVSEILARPKPWNKLTVRGKEPFHKMKQFLSDEQNILALRSIQGR [E2K]	-0.116 ± 0.039
GSEMDTAEIARQVKEQLIKHNIGQRIFGHYVLGLSQGSVSEILARPKPWNKLTVRGKEPFHKMKQFLSDEQNILALRSIQGR [E2S]	-0.087 ± 0.037
GYEMDTAEIARQVKEQLIKHNIGQRIFGHYVLGLSQGSVSEILARPKPWNKLTVRGKEPFHKMKQFLSDEQNILALRSIQGR [E2Y]	-0.175 ± 0.066
GPEMDTAEIARQVKEQLIKHNIGQRIFGHYVLGLSQGSVSEILARPKPWNKLTVRGKEPFHKMKQFLSDEQNILALRSIQGR [E2P]	-0.478 ± 0.052
GIEMDTAEIARQVKEQLIKHNIGQRIFGHYVLGLSQGSVSEILARPKPWNKLTVRGKEPFHKMKQFLSDEQNILALRSIQGR [E2I]	-0.261 ± 0.11
GFEMDTAEIARQVKEQLIKHNIGQRIFGHYVLGLSQGSVSEILARPKPWNKLTVRGKEPFHKMKQFLSDEQNILALRSIQGR [E2F]	-0.107 ± 0.086
GCEMDTAEIARQVKEQLIKHNIGQRIFGHYVLGLSQGSVSEILARPKPWNKLTVRGKEPFHKMKQFLSDEQNILALRSIQGR [E2C]	-0.137 ± 0.056
GLEMDTAEIARQVKEQLIKHNIGQRIFGHYVLGLSQGSVSEILARPKPWNKLTVRGKEPFHKMKQFLSDEQNILALRSIQGR [E2L]	-0.193 ± 0.036
GTEMDTAEIARQVKEQLIKHNIGQRIFGHYVLGLSQGSVSEILARPKPWNKLTVRGKEPFHKMKQFLSDEQNILALRSIQGR [E2T]	-0.117 ± 0.038

Variants of: B2
Assay: as above
Conditions: Homo sapiens

Variant	abundance fitness
FLTKYFNKQPYPTRREIEKLAASLWLWKSDIASHFSNKRKV [K41V]	-0.309 ± 0.078
FLTKYFNKQPYPTRREIEKLAASLWLWKSDIASHFSNKRKW [K41W]	0.259 ± 0.24
FLTKYFNKQPYPTRREIEKLAASLWLWKSDIASHFSNKRKY [K41Y]	-0.378 ± 0.079
